Experimental findings from patent JP2014185312A (dated 2014) are described below.

The assay addresses T1, Recombinant Human ErbB2/Fc Chimera (R&D Systems) (human, UniProt P04626 23-652).
T1 construct: Bought reagent, immobilised by amine coupling on a GLM sensor chip (about 3000 RU); also called HER2; not shown: Fc part (and any linker or tag) of the bought chimera; not described
Put plainly: SPR (ProteOn XPR36), ErbB2/Fc immobilised on GLM chip, conjugate as analyte, 1:1 Langmuir fit.

No end group written: not given here.

B1: pe-PEG40 (HER2-binding peptide of SEQ ID NO 3 modified with ICG and bound to monomaleimide linear PEG ME-400MA, MW 40000) (peptide)
peptide: MARSGLGGKGSC
modifications: not fully specified (residue 12); also: labelled with ICG-Sulfo-OSu, position not given here
notes: Tested as the PEG/ICG conjugate; also called pe−PEG40
For the molecule B1, the binding result is on record as “binds”.

B2: pe-PEG20 (HER2-binding peptide of SEQ ID NO 3 modified with ICG and bound to monomaleimide linear PEG ME-200MA, MW 20000) (peptide)
peptide: MARSGLGGKGSC
modifications: not fully specified (residue 12); also: labelled with ICG-Sulfo-OSu, position not given here
notes: Tested as the PEG/ICG conjugate; also called pe−PEG20
B2: the binding result is recorded as “binds”.
